Assay results: patent publication US20210371490A1 (MILTENYI BIOTEC B V, published 2021)

Target: T1, TSPAN8 (UniProt P19075 1-237, limits assumed)
T1 sequence (looked up): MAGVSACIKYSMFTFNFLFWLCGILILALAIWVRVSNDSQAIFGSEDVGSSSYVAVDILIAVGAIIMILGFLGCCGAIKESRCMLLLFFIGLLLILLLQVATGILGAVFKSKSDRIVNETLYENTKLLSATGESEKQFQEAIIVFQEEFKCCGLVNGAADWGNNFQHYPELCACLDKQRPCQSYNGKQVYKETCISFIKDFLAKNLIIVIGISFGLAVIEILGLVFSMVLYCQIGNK
Assay: cell-based or functional assay

B1: TSPAN8_hl_Sig4 CAR (other)
chain: EVKLLESGGGLVQPGGSMRLSCAASGFTFTDFYMNWIRQPAGKAPEWLGFIRNKASGYTTEYNPSVKGRFTISRDNTQNMLYLQMNTLRAEDTATYYCARAHSYYGYDYFDYWGQGVMVTVSSGGGGSGGGGSGGGGSDIQMTQSPASLSASLEEIVTITCQASQDIGNWLSWYQQKPGKSPQLLIYGATSLADGVPSRFSGSRSGTQYSLKISRLQVEDIRIYYCLQAYSAPWTFGGGTKLELKAASYPPVIVEMNSSVEAIEGSHVSLLCGADSNPPPLLTWMRDGTVLREAVAESLLLELEEVTPAEDGVYACLAENAYGQDNRTVGLSVMYAPWKPTVNGTMVAVEGETVSILCSTQSNPDPILTIFKEKQILSTVIYESELQLELPAVSPEDDGEYWCVAENQYGQRATAFNLSVEFAPVLLLESHCAAARDTVQCLCVVKSNPEPSVAFELPSRNVTVNESEREFVYSERSGLVLTSILTLRGQAQAPPRVICTARNLYGAKSLELPFQGAHRLMWAKIGPIYIWAPLAGTCGVLLLSLVITLYCKRGRKKLLYIFKQPFMRPVQTTQEEDGCSCRFPEEEEGGCELRVKFSRSADAPAYQQGQNQLYNELNLGRREEYDVLDKRRGRDPEMGGKPRRKNPQEGLYNELQKDKMAEAYSEIGMKGERRRGKGHDGLYQGLSTATKDTYDALHMQALPPR
- cytokine release after 24 h co-culture with AsPC1 cells (MACSPlex), against the TSPAN8 CD8a CAR T cells: 10 fold lower
